Paper PMC10627512

Target: HipB of the E. coli O127:H6 HipBST toxin-antitoxin system (E. coli O127:H6) (UniProt P23873)
Assay: crystal structure

HipB of the E. coli O127:H6 HipBST toxin-antitoxin system (from UniProt P23873 1-88) (natural protein)
stoichiometry N: 2
